Measured values taken from the supplement of paper PMC10201428.
± gives the standard deviation of the averaged measurements.

Test system: VchCAST RNA-guided transposition machinery (E. coli BL21(DE3) host, lacZ target)
Assay: relative integration efficiency (T-RL orientation) vs wild-type transposon end (log2 (normalized fold change)); transposon end mutated: right end (5 bp flank + 75 bp right end); higher = more efficient transposition
Summary of the method: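 Relative integration efficiency is a fold change of output over input barcode abundance, normalised to reference barcodes and log-transformed. Input plasmids and genomic integration junctions were PCR-amplified and Illumina-sequenced from E. coli BL21(DE3) co-transformed with a T7-driven effector plasmid and pUC57 donor pools of 1549 left-end or 1849 right-end transposon variants. Plating was done with 0.1 mM IPTG at 37°C for 18 h, with two biological output replicates and four reference barcodes.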

Sequence	relative integration efficiency (log2)
ACATTTGTTGATACAACCATAAAATGATAATTAACCCCATAAATTGATAATTATCACACCCATAAATTGATATTGCCTCTGATCATAGTCAGACCAACATTGCTACGACCCGTATTCGCACCGACAC	-0.822 ± 0.075
ACATTTGTTGATACAACCATAAAATGATAATTACTCTGATCATAGTCAGACCAACATTGCTACCACCCATAAATTGATAATTATCAGTGGGTATTTAACTATAACGGACCCGTATTCGCACCGACAC	-1.54 ± 0.53
ACATTTGTTGATAGTTGGTATTTTACTATTAATCACCCATAAATTGATAATTATCAGTGGGTATTTAACTATAACGCTCTGATCATAGTCAGACCAACATTGCTACGACCCGTATTCGCACCGACAC	-5.71 ± 0.79
ACATTTGTTGATACAACCATAAGTTGATATTTTCAACCATAAAATGATAATTATCACAACCATAAGTTGATATTTTCTCTGATCATAGTCAGACCAACATTGCTACGACCCGTATTCGCACCGACAC	-0.233 ± 0.067
ACATTTGTTGATACAACCATAAAATGATAATTACACGGATAAATTGATAATTATCACACCCATAAATTGATATTGCCTCTGATCATAGTCAGACCAACATTGCTACGACCCGTATTCGCACCGACAC	-0.265 ± 0.13
ACATTTGTTGATACACCCATAAATTGATATTGCCAACCATAAAGTGATATTTATCACAACCATAAAATGATAATTACTCTGATCATAGTCAGACCAACATTGCTACGACCCGTATTCGCACCGACAC	-0.499 ± 0.21
ACATTTGTTGATAACACCATAAAATGATAATTACACCCATAAATTGATAATTATCACACCCATAAATTGATATTGCCTCTGATCATAGTCAGACCAACATTGCTACGACCCGTATTCGCACCGACAC	-0.41 ± 0.018
ACATTTGTTGATACAACCATAAAATGATTATTACACCCATAAATTGATAATAATGACACCGAATTTAACTATAACGCTCTGATCATAGTCAGACCAACATTGCTACGACCCGTATTCGCACCGACAC	-0.616 ± 0.36
ACATTTGTTGATACAACCATAAAATGATAATTACACCCATAAATTGATAATTCGACACAAACGCCCGGTCGCGGTAAGAGGATCATAGTCAGACCAACATTGCTACGACCCGTATTCGCACCGACAC	0.636 ± 0.17
ACATTTGTTGATACAACCATAAAATGATAATTACTCTGATCATAGTCAGACCAACATTCACCCATAAATTGATAATTATCAGTGGGTATTTAACTATAACGGCTACGACCCGTATTCGCACCGACAC	-3.1 ± 0.26
ACATTAGTTGATACAACCATAAAATGATAATTACACCCATAAATGGATAATTATCACACCCAATTTAACTATAACGCTCTGATCATAGTCAGACCAACATTGCTACGACCCGTATTCGCACCGACAC	-6.45 ± 0.32
ACATTTGTTGATACAACCATAAAATCATCATTACACCCATCAATTGATAATTATCCCACCCAATTTAACTATAACGCTCTGATCATAGTCAGACCAACATTGCTACGACCCGTATTCGCACCGACAC	-4.67 ± 0.2
ACATTTGTTGATACAACCATAAAATCTTAATTACACCCATAAATTGATAATTATCACACCCATAAATTGATATTGCCTCTGATCATAGTCAGACCAACATTGCTACGACCCGTATTCGCACCGACAC	-1.973 ± 0.011
ACATTTGTTGATACAACCATAAAATGATAATTACAACCATAAAATGATAATTATCACAACCATAAGTTGATATTTTCTCTGATCATAGTCAGACCAACATTGCTACGACCCGTATTCGCACCGACAC	-0.0104 ± 0.27
ACATTTGTTGATACACCCATAAATTGATATTGCCACCCATAAATTGATATTGCTCACAACCATAAAATGATAATTACTCTGATCATAGTCAGACCAACATTGCTACGACCCGTATTCGCACCGACAC	-0.874 ± 0.16
ACATTTGTTGATACAACCATAAAATGATAATTACACCCATAAATTGATAATTATCACACCCATAAATTGATATTGCCTCTGATCATAGTCGAACTAGTTAACTAGTACGCTCAGACCGCACCGACAC	-0.00349 ± 0.18

Sequence	relative integration efficiency (log2)
ACATTTGTTCTTACAACCATAAAATGATAATTACACCCATAAATTGATAATTATCACACCCATAAATTGATATTGCCTCTGATCATAGTCAGACCAACATTGCTACGACCCGTATTCGCACCGACAC	-0.825 ± 0.14
ACATTTGTTGATACAACCATTAAATGATAATTCCACCCATAATTTGATAATTATCACACCCAATTTAACTATAACGCTCTGATCATAGTCAGACCAACATTGCTACGACCCGTATTCGCACCGACAC	-0.743 ± 0.14
ACATTTGTTGATACAACCATAAAATGATAATTAATAATTATTTATAATCAGCAACTTAACCACACCCATAAATTGATAATTATCAACAAACGCCCGGTCGCGGTACTCTGATCATAGTCAGACCAAC	-2.81 ± 0.91
ACATTTGTTCATACAACCATAAAACGATAATTACACCCATAAATGGATAATTATCACACCCAATTTAACTATAACGCTCTGATCATAGTCAGACCAACATTGCTACGACCCGTATTCGCACCGACAC	-2.14 ± 0.3
CAAAATGTTGATACAACCATAAAATGATAATTACACCCATAAATTGATAATTATCACACCCATAAATTGATATTGCCTCTGATCATAGTCAGACCAACATTGCTACGACCCGTATTCGCACCGACAC	-0.331 ± 0.081
ACATTTGTTGATACAACCATATATTGATATCTCCAACCATAAAGTGATATTTATCAGTGGGTATTTAACTATAACGCTCTGATCATAGTCAGACCAACATTGCTACGACCCGTATTCGCACCGACAC	-0.927 ± 0.29
ACATTTGTTGATACACCCATAAATTGATATTGCCACCCATAAATTGATAATTATCAGTGGGTATTTAACTATAACGCTCTGATCATAGTCAGACCAACATTGCTACGACCCGTATTCGCACCGACAC	-1.42 ± 0.14
ACATTTGTTGATACAACCATAAAATGATAATTACACCCATAAATTGATCCGGATCACACCCATAAATTGATATTGCCTCTGATCATAGTCAGACCAACATTGCTACGACCCGTATTCGCACCGACAC	-0.929 ± 0.16
ACATTTGTTGATACAAAACGAAAATGATAATTACACCCATAAATTGATAATTATCACACCCATAAATTGATATTGCCTCTGATCATAGTCAGACCAACATTGCTACGACCCGTATTCGCACCGACAC	-3.95 ± 0.13
ACATTTGTTGATACAACCATAAAATCATAATTACCCCCATCAATTGATAATTATCACACCCAATTTAACTATAACGCTCTGATCATAGTCAGACCAACATTGCTACGACCCGTATTCGCACCGACAC	-5.12 ± 0.12
ACATTTGTGGATACAACCATAAAATGATAATTCACCCATCAATTGATAATTATCACACCCCAATTTAACTATAACGCTCTGATCATAGTCAGACCAACATTGCTACGACCCGTATTCGCACCGACAC	-2.89 ± 0.38
ACATTTGTTGATACAACCATAAAATCATCATTCACCCCTAAATTGATAATTATCACACCCACATTTAACTATAACGCTCTGATCATAGTCAGACCAACATTGCTACGACCCGTATTCGCACCGACAC	-5.66 ± 0.14
ACATTTGTTGATACAACCATAAAATGATAATTACACCCATAAATTGATAATTATCACACGGTAAAATTGATATTGCCTCTGATCATAGTCAGACCAACATTGCTACGACCCGTATTCGCACCGACAC	-0.357 ± 0.043
ACATTTGTTGATACAACCATAAAATGATAATTACAACCATAAAATGATAATTATCACACCCATAAATTGATAATTACTCTGATCATAGTCAGACCAACATTGCTACGACCCGTATTCGCACCGACAC	0.0421 ± 0.03
ACATTTGTTGATACAACCATAAAATGATAATTAATAATTATTCACCCATAAATTGATAATTATCACACCCATAAATTGATATTGCCTCTGATCATAGTCAGACCAACATTGCTACGACCCGTATTCG	-3.976 ± 0.019
ACATTTGTTGATACAACCATAAAAGGATCATTACCCCCATCAATTGATAATTATCACACCCAATTTAACTATAACGCTCTGATCATAGTCAGACCAACATTGCTACGACCCGTATTCGCACCGACAC	-4.48 ± 0.1
